# Results from paper PMC8844826.
# How the values were obtained:
# [1] = target: full length PSD-95 (FL-PSD-95, 1-724) (human) (UniProt P78352); test: fluorescence polarisation; competition at pH 7.4: PSD-95 (150 nM) and fluorescent tracer, increasing NA-1; apparent
# [2] = target: full length PSD-95 (FL-PSD-95, 1-724) (human) (UniProt P78352); test: fluorescence polarisation; competition at pH 9.4: PSD-95 (150 nM) and fluorescent tracer, increasing NA-1; apparent
# [3] = target: full length PSD-95 (FL-PSD-95, 1-724) (human) (UniProt P78352); test: fluorescence polarisation; competition at pH 6.4: PSD-95 (150 nM) and fluorescent tracer, increasing NA-1; apparent
# [4] = target: full length PSD-95 (FL-PSD-95, 1-724) (human) (UniProt P78352); test: fluorescence polarisation; competition at pH 8.4: PSD-95 (150 nM) and fluorescent tracer, increasing NA-1; apparent
# Sequence of full length PSD-95 (FL-PSD-95, 1-724) (human) (P78352 whole entry): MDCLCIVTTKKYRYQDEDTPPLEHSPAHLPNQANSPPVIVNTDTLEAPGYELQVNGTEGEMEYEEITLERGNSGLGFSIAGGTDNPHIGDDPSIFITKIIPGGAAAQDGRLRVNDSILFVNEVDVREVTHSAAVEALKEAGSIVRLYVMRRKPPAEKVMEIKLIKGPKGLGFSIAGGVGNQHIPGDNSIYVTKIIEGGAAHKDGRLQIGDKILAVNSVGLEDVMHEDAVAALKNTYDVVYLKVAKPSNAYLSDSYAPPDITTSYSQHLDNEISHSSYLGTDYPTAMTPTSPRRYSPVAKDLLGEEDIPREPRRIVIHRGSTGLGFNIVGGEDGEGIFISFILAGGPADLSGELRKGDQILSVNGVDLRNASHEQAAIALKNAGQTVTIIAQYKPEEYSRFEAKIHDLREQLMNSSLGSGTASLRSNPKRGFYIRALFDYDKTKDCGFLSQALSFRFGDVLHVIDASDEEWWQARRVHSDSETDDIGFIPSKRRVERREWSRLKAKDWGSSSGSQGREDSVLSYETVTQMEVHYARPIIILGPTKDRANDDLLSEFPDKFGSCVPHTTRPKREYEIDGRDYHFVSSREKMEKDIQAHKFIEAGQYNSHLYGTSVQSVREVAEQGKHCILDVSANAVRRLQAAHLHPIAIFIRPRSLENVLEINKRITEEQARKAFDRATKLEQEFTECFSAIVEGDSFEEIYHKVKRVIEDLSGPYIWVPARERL
substance,measurement,setting,value
NA-1 (nerinetide): TAT peptide fused to C-terminal residues of the GluN2B NMDAR subunit,Ki,[1],4.5 µM
same,Ki,[2],4.1 µM
same,Ki,[3],7.2 µM
same,Ki,[4],2600 nM
